Target: HPIV3 fusion (F) protein stabilized in the prefusion conformation (HPIV3 preF) (human parainfluenza virus type 3) (UniProt P06828)
Experiment: cryo-EM structure

HPIV3 fusion (F) protein stabilized in the prefusion conformation (HPIV3 preF) (from UniProt P06828 19-481) (natural protein)
stoichiometry N: 3
